Measurements reported in the nanobody polyreactivity screen of Harvey et al. (2022).

assay: yeast display, Sf9 membrane polyspecificity reagent, FACS + sequencing; frameworks hold sequencing errors
Procedure, shortened: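 Using colony PCR, genes from sorted yeast display clones were amplified, then sequenced on MiSeq at 2 × 250 and filtered by CDR length. The clones had been stained with 10% biotinylated, detergent-solubilized Sf9 membrane reagent for 1 hour at 4 °C and sorted by FACS into low and high (top ~1%) gates on anti-HA and streptavidin fluorescence. Polyreactivity labels come from the gate of origin.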

Sequence	polyreactivity (PSR sort gate)
QVQLVESGGGLVQAGGSLRLSCAASGRTFRHNAMGWYRQAPGKERELVAAISKSGGRTYYADSVKGRFTISRDNAKNTVYLQMNSLKPEDTAVYYCAAPLYVSTSGEVGYWGQGTQVTVSS	high polyreactivity
QVQLVESGGGLVQAGGSLRLSCAASGRTFRHNAMGWYRQAPGKERELVAAISSSGTNTHYADSVKGRFTISRDNAKNTVYLQMNSLKPEDTAVYYCATVVRSAAYAFDYWGQGTQVTVSS	high polyreactivity
QVQLVESGGGLVQAGGSLRLSCAASGRTFRINAMGWYRQAPGKERELVAAITSIAGNTYYADSVKGRFTISRDNAKNTVYLQMNSLKPEDTAVYYCAVDSVPWGFRGAYGLTRYYYWGQGTQVTVSS	low polyreactivity
QVQLVESGGGLVQAGGSLRLSCAASGRTFRINAMGWYRQAPGKERELVAAITYRGANTYYADSVKGRFTISRDNAKNTVYLQMNSLKPEDTAVYYCAAEYAYHHVGFGYWGQGTQVTVSS	low polyreactivity
QVQLVESGGGLVQAGGSLRLSCAASGRTFRIYAMGWYRPATGKEREMVATISGRGGNTYYADSVKGRFTISRDNAKNTVYLQMNSLKPDDTAVYYCNTVYLPNFQWFDYWGQGTQVTVSS	high polyreactivity
QVQLVESGGGLVQAGGSLRLSCAASGRTFRIYAMGWYRQAPGKEREFVAAITWSGGRTYYADSVKGRFTISRDNAKNTVYLQMNSLKPEDTAVYYCAADPTYLRTLRFGSYDYWGQGTQVTVSS	high polyreactivity
QVQLVESGGGLVQAGGSLRLSCAASGRTFRKYAMGWYRQAPGKERELVAALSWYGGSTYYANSVKGRFTISRDNAKNTVYLQMNSLKPEDTAVYYCAAVPVHTGSLYWGFTTCYDYWGQGTQVTVSS	low polyreactivity
QVQLVESGGGLVQAGGSLRLSCAASGRTFRKYAMGWYRQATGKERELVAAISWSGGSTYYANSVKGRFTISGDNAKNTVYLQINSLNPEDTAVYFCAVDCHPEEYDYWGQGTQVTVSS	low polyreactivity
QVQLVESGGGLVQAGGSLRLSCAASGRTFRLNAMGWYRQAPGKERELVAAINTGGGTYYADSVKGRFTISRDNAKNSVYLQMNSLKPEDTAVYYCNACTRYGSFSYVKYDWGQGTQVTVSS	high polyreactivity
QVQLVESGGGLVQAGGSLRLSCAASGRTFRLNAMGWYRQAPGKERELVAAITASGGRTYYADSVKGRFTISRDNAKNTVYLQMNSLKPEDTAVYYCNTLSRTDASRFDYWGQGTQVTVSS	high polyreactivity
QVQLVESGGGLVQAGGSLRLSCAASGRTFRLNAMGWYRQAPGKERELVAAITLGGGRTYYADSVKGRFTISRDNAKNTVYLQMNSLKPEDTAVYYCNKVKRSYYYVDTDYWGQGTQVTVSS	high polyreactivity
QVQLVESGGGLVQAGGSLRLSCAASGRTFRLNGMGWYRQAPGKDRELVAAITWSGGRTYYADSVKGRFTISRDNAKNTVYLQKNSLKPEDTAVYYCAAGKSSYGIPKYYYWGQGTQVTVSS	high polyreactivity
QVQLVESGGGLVQAGGSLRLSCAASGRTFRLYAMGWYRQAPGKERELVAAISRRGGSTYYADSVKGRFTISRDNAKNTVYLQMNSLKPEDTAVYYCAKGLGSGQEIYGYDYWGQGTQVTVSS	high polyreactivity
QVQLVESGGGLVQAGGSLRLSCAASGRTFRPNVMGWYRQAPGKERELVAAISNGGRTYYADSVKGRFTISRDNAKNTVYLQMNSLKPEDTAVYYCNKVRSPWYDSWGQGTQVTVSS	high polyreactivity
QVQLVESGGGLVQAGGSLRLSCAASGRTFRPYAMGLYRQEPGKERELVAAITSGGSTYYADSVKGRLTFSRDNAKYTVYLQMNSLKTEDTAVYYCNAKYYYQPPYDYWVQGTQVTVSS	low polyreactivity
QVQLVESGGGLVQAGGSLRLSCAASGRTFRPYAMGWYRQAPGKERELVAAITTTGRTYYADSVKGRFTISRDNAKNTVYLQMNSLKPEDTAVYDCNAVAYPSPHYWRYYYWGQGTQVTVSS	high polyreactivity
QVQLVESGGGLVQAGGSLRLSCAASGRTFRQYALGWYRQAPGKEWELVATISGGGGNTYYADSVKGRFTISRDNAKKTVYLQMNSLKPEDTAFYYCAARRRDRPVRGYDYWGQGTQVTVSS	high polyreactivity
QVQLVESGGGLVQAGGSLRLSCAASGRTFRQYAMGWSRQAPGKERELVAGITASGGSTSYADSVKGRFTISRDNAKNTVYLQMNSLKPEDTAVYYCAKLSYLYRYDYWGQGTQVTVSS	high polyreactivity
QVQLVESGGGLVQAGGSLRLSCAASGRTFRQYAMGWYRQAPGQETELVAAITWDGGSTYYADSVKGRFTISRDNAKNPVYLQMNSLKPEDTAVYYCAKLLGGTYYEYDYWGQGTQVTVSS	low polyreactivity
QVQLVESGGGLVQAGGSLRLSCAASGRTFRRNAMGWYRQAPGKERELVAAINSGGSTYYADSVKGRFTISRDNAKNTDYLQMNSLKPEDTAVYYCAASGSKYVQSYSRYDYWGQGTQVTVSS	high polyreactivity

Sequence	polyreactivity (PSR sort gate)
QVQLVESGGGLVQAGGSLRLSCAASGRTFRRNAMGWYRQAPGKERELVAAISWRGVSTYYADSVKGRFTISRDNAKNTVYLQMNSLKPEDNALYYCAVDFPYTRRDYWGQGPQVTVSS	high polyreactivity
QVQLVESGGGLVQAGGSLRLSCAASGRTFRRNAMGWYRQAPGKEWELVAAISKSGGRTYYADSVKGRFTISRDNAKNTVYLQMNSLKPEDTAVYYCAARGYGYIPDNGDYDYWGQGTQVTVSS	high polyreactivity
QVQLVESGGGLVQAGGSLRLSCAASGRTFRRNTMGWYRQAPGKERELVAAISNRGTSTYYADSVKGRFTFSRDNAKNTVYLQMNSLKPEDTAVYYCAAREKYISYSYYYWGQGTQVTVSS	high polyreactivity
QVQLVESGGGLVQAGGSLRLSCAASGRTFRRNTMGWYRQATGKERAFVAAITFSGVRTYYADSVKGRFTISRDNAKNTVYLQMNSLKPEDTAVYYCANSRQYIGGFDYWGQGTQVTVSS	high polyreactivity
QVQLVESGGGLVQAGGSLRLSCAASGRTFRRYAMGWYRQAPGKEREFVAAIRYSGGITYYADSVKGRFTISRDNAKNTVYLQMNSLKPEDTAVFYCAAYGWGNRWYSRFDYWGQGTQVTVSS	high polyreactivity
QVQLVESGGGLVQAGGSLRLSCAASGRTFRRYAMGWYRQAPGKERELVAAISKSGGRTYYADSVKGRFTISRDNAKNTVYLQMNSLKPEDTAVYYCAADHIQTAGGDYWGQGTQVTVSS	high polyreactivity
QVQLVESGGGLVQAGGSLRLSCAASGRTFRRYAMGWYRQAPGKEREWVAAISRTGSTNNYADSVKGRFTISRDNAKKTVYLQLNSLKPEDTAVYDCNGQLILGYGYDYWGQGTQVTVSS	high polyreactivity
QVQLVESGGGLVQAGGSLRLSCAASGRTFRRYTMGWYRQAPGKEREFVAGITSSAGNTHYADSVKGRFTISRYNAKNTVYLQMNSLKPEDTAVYYCNAVYYHGSSQYYGGTYGRYYWGQGTQVTVSS	high polyreactivity
QVQLVESGGGLVQAGGSLRLSCAASGRTFRRYTMGWYRQAPGKERELVAAITSGGRTNYADSVKGRFTISRDNAKNTVYLQMNSLKPEDTAVYYCNAQNEIWRVTFSPFDRWGYDYWGQGTQVTVSS	low polyreactivity
QVQLVESGGGLVQAGGSLRLSCAASGRTFRRYTMGWYRQAPGKERELVATISSGGSTYADSVKGRFTISRDNAKNTVYLQMNSLKPEDTAVYYCAATAIYPSAWRMDYWGQGTQVTVSS	high polyreactivity
QVQLVESGGGLVQAGGSLRLSCAASGRTFRSDNALGWYRQPPGKERELVAAISQGGGTYYADSVKGRFTISRDNAKKTVYLQMNSLKPEDTAVYYCARDAYYADPSLWYYTYDYWGQGTQVTVSS	low polyreactivity
QVQLVESGGGLVQAGGSLRLSCAASGRTFRSNAMGWYRQAPGKERELVAAIRNSDGSTNYADSVKGRFTISRDNAKNTVYLQMNSLKPEDTAVYYCAASSTVGRITRILYYYWGQGTQVTVSS	high polyreactivity
QVQLVESGGGLVQAGGSLRLSCAASGRTFRSNGMGWYRQAPGKERQLVATISEGGGSTYYADSVKGRFTISRDNAKNTVYLQMNSLKPEDTAVYYCAATVYPSVYGENHYGYWGQGTQVTVSS	high polyreactivity
QVQLVESGGGLVQAGGSLRLSCAASGRTFRSNVMGWYRPAPGNERELVASITWSGGTTYYADSVKGRFTISRDNAKNTVYLQMNSLKPEDTAVYYCNAADERSQGWVGYDNWGQCTQVTVSS	low polyreactivity
QVQLVESGGGLVQAGGSLRLSCAASGRTFRSYAMGWYRQAPGKERELVAAIRRGGSTNYADSVKGRFTISRDNAKNTVYLQMNSLKPEDTAVYYCNARQTVRGPTDGRIAVWFDYWGQGTQVTVSS	high polyreactivity
QVQLVESGGGLVQAGGSLRLSCAASGRTFRSYAMGWYRQAPGKERELVAAISRRGGTTYYADSVKGRFTISRDNAKNTVYLQMNSLKPEDTAVYYCAATSYTYVLSPYRGDYWGQGTQVTVSS	high polyreactivity
QVQLVESGGGLVQAGGSLRLSCAASGRTFRSYAMGWYRQAPGKERELVASITSSGRTNYADSVKGRFTISRDNAKNTVYLQMNSLKPEDTAVYYCAAVRYYDYLSSWRYDYWGQGTQVTVSS	low polyreactivity
QVQLVESGGGLVQAGGSLRLSCAASGRTFRSYTMGWYRQAPGKERELVAAIRTSSGSTYYADSVKGRFTISRDNAKNTVYLQMNSLKPEDTAVYYCAKTLLYPWFRTVAVDYWGQGTQVTVSS	low polyreactivity
QVQLVESGGGLVQAGGSLRLSCAASGRTFRTYTMGWYRPAPGKERELVAAISKRGSSTYYADSVKGRFTISRDNAKNTVYLQMNSLKQEDTAVYYCAARSWLSNSPYGYWGQGTQVTVSS	high polyreactivity
QVQLVESGGGLVQAGGSLRLSCAASGRTFRTYTMGWYRQAHGKERELVAAITSTGSTYYADSVKGRFTISRDNAMNTVYLQMNSLKPEDTAVYYCNVGRRLRPYRCTRPNLEYYYWGQGTQVTVSS	high polyreactivity
